System: Experimental Autoimmune Encephalomyelitis (EAE)
Assay: chronic EAE model in C57BY6 mice, clinical score
Type: in vivo
Settings: chronic EAE in C57BY6 mice (MOG/CFA + B. pertussis toxin); subcutaneous daily treatment, 20,000 U/mouse, started at onset of the disease, 28 to 30 days
Description: The most widely used animal model for multiple sclerosis is Experimental Autoimmune Encephalomyelitis (EAE), based on shared histopathological and clinical features with the human disease:
The chronic EAE model in C57BY6 mice shares some common traits with the primary progressive (PP) or secondary progressive (SP) forms of MS. Mice are immunized in both flanks at day 0 and day 7 with 200 μg s.c. of myelin oligodendrocyte glycoprotein (MOG) in Complete Freund's Adjuvant (CFA) and followed by two injections (on day 0 and day 2) with 500 ng i.p. of B. pertussis toxin.
Groups are composed of 10 to 13 EAE mice. Clinical scores, overall health status, body weight and mortality are recorded daily. Starting from day 7 the animals are individually examined for the presence of paralysis by means of a clinical score: 0=no sign of disease, 1=tail paralysis, 2=tail paralysis+hindlimb weakness or partial hindlimb paralysis, 3=tail paralysis+complete hindlimb paralysis, 4=tail paralysis+hindlimb paralysis+weakness or partial paralysis of forelimbs, 5=moribund or dead.
Starting from day 10-12, most animals are becoming increasingly paralysed.
Therapeutic treatments are started at the onset of the disease, thus once the disease is already established but still progressing and continued for 28 to 30 days. […]

B1: mIFNβ: mIFNβ (Serono Pharmaceutical Research Institute, Geneva), interferon beta given to EAE mice (protein, UniProt P01575 22-182, looked up)
Interferon beta: INYKQLQLQERTNIRKCQELLEQLNGKINLTYRADFKIPMEMTEKMQKSYTAFAIQEMLQNVFLVFRNNFSSTGWNETIVVRLLDELHQQTVFLKTVLEEKQEERLTWEMSSTALHLKSYYWRVQRYLKLMKYNSYAWMVVRAEIFRNFLIIRRLTRNFQN
clinical output (severity of the disease, paralysis clinical score): significantly reducing the severity of the disease from complete hindlimb to partial hindlimb paralysis

Reference: patent US20090136450A1, “THERAPY FOR NEUROLOGICAL DISEASES” (priority 2005, published 2009)
